Measured values taken from the RNAGym collection of RNA variant scans (doi:10.1021/acssynbio.7b00057).

B1: Pistol ribozyme (parent)
chain: GGGUCGUUGUUCCAUAAUCGCGUGGAUAUGGCACGCAAGUUUCUACCGGGCACCGUAAAUGUCCGACUGGAGCCGUUCGGGCGGCUAUAAACAGACCUCAGGCCCGAAGCGUGGCGGCACCUGCCGCCGGUGGUAAAAAAGAUCGGAAGAGCACACGUCU

Variants of: B1
Assay: aptazyme ON/OFF ratio, guanine; higher = stronger switching; co-transcriptional cleavage with and without guanine

Variant | aptazyme ON/OFF ratio
U7A U8C G9U U10A U11G C12A C13A | 1.08
U7A U8C G9U U10A U11G C12A C13U | 1.1
U7A U8C G9U U10A U11G C12A C13G | 1.2
U7A U8C G9C U11C C13U | 1.03
U7A U8C G9C U11C C13A | 1.05
U7A U8C G9C U11C C13G | 1.04
U7A U8C G9C U10G U11C C12A C13U | 1.09
U7A U8C G9C U10G U11C C12A C13A | 1.05
U7A U8C G9C U10G U11C C12A C13G | 1.08
U7A U8C G9C C13U | 1.07
U7A U8C G9C C13A | 1.07
U7A U8C G9C C13G | 1.06
U7A U8C G9C U10A C12G | 1.21
U7A U8C G9C U10A C12A | 1.09
U7A U8C G9C U10A C12U | 1.11
U7A U8C G9U U10A U11C C12U C13U | 1.18
U7A U8C G9U U10A U11C C12U C13G | 1.12
U7A U8C G9U U10A U11C C12U C13A | 1.1
U7A U8C G9C U10G U11A C12U C13A | 1.07
U7A U8C G9C U10G U11A C12U C13U | 1.03
U7A U8C G9C U10G U11A C12U C13G | 1.01

Variant | aptazyme ON/OFF ratio
U7A U8C G9C U10C U11G C12A | 1.13
U7A U8C G9C U10C U11G C12G | 1.08
U7A U8C G9C U10C U11G C12U | 1.06
U7A U8C G9C U10G C13A | 1.1
U7A U8C G9C U10G C13U | 1.14
U7A U8C G9C U10G C13G | 1.09
U7A U8C G9C U10C U11C C12G C13U | 1.07
U7A U8C G9C U10C U11C C12G C13G | 1.09
U7A U8C G9C U10C U11C C12G C13A | 1.02
U7A U8C G9C U11G C12U C13G | 1.19
U7A U8C G9C U11G C12U C13U | 1.27
U7A U8C G9C U11G C12U C13A | 1.17
U7A U8C G9C U11C C12G C13G | 1.13
U7A U8C G9C U11C C12G C13U | 1.09
U7A U8C G9C U11C C12G C13A | 1.07
U7A U8C G9C U10A U11C C12G | 1.26
U7A U8C G9C U10A U11C C12A | 1.1
U7A U8C G9C U10A U11C C12U | 1.13
U7A U8C G9C U10C U11C C12A C13U | 0.998
U7A U8C G9C U10C U11C C12A C13G | 1.03
U7A U8C G9C U10C U11C C12A C13A | 0.998

Variant | aptazyme ON/OFF ratio
U7A U8C G9U U10A U11G C13U | 1.23
U7A U8C G9U U10A U11G C13A | 1.17
U7A U8C G9U U10A U11G C13G | 1.1
U7A U8C G9C U10G C12U C13G | 1.11
U7A U8C G9C U10G C12U C13A | 1.06
U7A U8C G9C U10G C12U C13U | 1.26
U7A U8C G9U C12U C13U | 1.39
U7A U8C G9U C12U C13A | 1.22
U7A U8C G9U C12U C13G | 1.12
U7A U8C G9C U10C U11G C13G | 1.16
U7A U8C G9C U10C U11G C13U | 1.04
U7A U8C G9C U10C U11G C13A | 1.07
U7A U8C G9C U10G U11G C12U C13A | 1.07
U7A U8C G9C U10G U11G C12U C13G | 1.1
U7A U8C G9C U10G U11G C12U C13U | 1.1
U7A U8C G9C U10A U11G C12U C13G | 1.14
U7A U8C G9C U10A U11G C12U C13U | 1.14
U7A U8C G9C U10A U11G C12U C13A | 1.13
U7A U8C G9C U10C C12G | 1.03
U7A U8C G9C U10C C12U | 1.04
U7A U8C G9C U10C C12A | 1.03

Variant | aptazyme ON/OFF ratio
U7A U8C G9C U10A U11G C12G C13A | 1.08
U7A U8C G9C U10A U11G C12G C13U | 1.14
U7A U8C G9C U10A U11G C12G C13G | 1.13
U7A U8C G9C U10A U11A C12G | 1.13
U7A U8C G9C U10A U11A C12U | 1.07
U7A U8C G9C U10A U11A C12A | 1.09
U7A U8C G9C U10A U11G C12A C13A | 1.11
U7A U8C G9C U10A U11G C12A C13U | 1.11
U7A U8C G9C U10A U11G C12A C13G | 1.12
U7A U8C G9C U11C C12G | 1.18
U7A U8C G9C U11C C12A | 1.04
U7A U8C G9C U11C C12U | 1.03
U7A U8C G9C U10G U11G C12U | 1.05
U7A U8C G9C U10G U11G C12G | 1.13
U7A U8C G9C U10G U11G C12A | 1.24
U7A U8C G9C U10G U11C C12U C13U | 1.11
U7A U8C G9C U10G U11C C12U C13A | 1.12
U7A U8C G9C U10G U11C C12U C13G | 1.16
U7A U8C G9U U10A U11C C13A | 1.08
U7A U8C G9U U10A U11C C13G | 1.1
